Patent publication US20110117658A1 (published 2011)
Bridges are numbered along the chain shown (N, C = ends). Where no end group is shown, it is not given here. [ ]: non-standard residue; d: D form. Gla = N[C@@H](CC(C(=O)O)C(=O)O)C(=O)O

Key:
[1] = molecular target: the molecule itself; assay: sedimentation equilibrium, monomer-dimer equilibrium model, in the absence of calcium; extrapolated dimer dissociation constant
Excerpt: (§1) The hydroxyapatite lattice binding mode represented by the best solution presupposes that osteocalcin engages hydroxyapatite with the acidic Ca²⁺-coordinating surface as a monomer. In the crystal structure of porcine osteocalcin, however, the five Ca²⁺ ions are sandwiched between two crystallographically related protein molecules. If overly stable, this dimeric state could present an impediment to hydroxyapatite binding. To investigate whether porcine osteocalcin exists as a monomer or dimer in solution, sedimentation equilibrium analysis in the presence and absence of 10 mM CaCl₂ was carried out. In both cases, the sedimentation equilibrium data were best fitted to a monomer-dimer equilibrium model (FIG. 6). […] Theses Kd values are 2-3 orders of magnitude higher than the concentration of osteocalcin in human serum […],³¹ showing that osteocalcin exists as a monomer in vivo.

[2] = molecular target: the molecule itself; assay: sedimentation equilibrium, monomer-dimer equilibrium model, in the presence of 10 mM CaCl2; extrapolated dimer dissociation constant
Excerpt: as §1

B1: porcine osteocalcin (other)
chain: YLDHGLGAPAPYPDPL[Gla]PRR[Gla]VC[Gla]LNPDCDELADHIGFQEAYRRFYGIA
modifications: disulfide 23-29; not fully specified
notes: the entries describe its self-association into a dimer; In the crystal only residues 13-49 are ordered (residues 1 to 12 missing from the model); also called pOC; POC13-49 (part seen in the crystal structure)
With B1 the Kd [1] was 800 µM and the Kd [2] was 200 µM.
